{"source": "patent EP4538286A1", "about": "(Adlai Nortye Biopharma Co., Ltd., dated 2025)", "binders": {"B1": {"name": "Abs-353 (other)", "heavy": "VIHVTKEVKEVATLSCGHNVSVEELAQTRIYWQKNKKMVLTMMSGDMNIWPEYKNRTIFDITNNLSIVILELRPSDEGTYECVVLKYEKDAFKREHLAEVTLSVKADGGGGSGGGGSGGGGSGGGGSGEVQLLESGGGLVQPGGSLRLSCAASGFTFSSYAMSWVRQAPGKGLEWVSGISGSGGFTYYADSVKGRFTISRDNSKNTLYLQMNSLRAEDTAVYYCAKPPRGYNYGPFDYWGQGTLVTVSSASTKGPSVFPLAPCSRSTSESTAALGCLVKDYFPEPVTVSWNSGALTSGVHTFPAVLQSSGLYSLSSVVTVPSSSLGTKTYTCNVDHKPSNTKVDKRVESKYGPPCPPCPAPEFLGGPSVFLFPPKPKDTLMISRTPEVTCVVVDVSQEDPEVQFNWYVDGVEVHNAKTKPREEQFNSTYRVVSVLAVLHQDWLNGKEYKCKVSNKGLPSSIEKTISKAKGQPREPQVYTLPPSQEEMTKNQVSLTCLVKGFYPSDIAVAWESNGQPENNYKTTPPVLDSDGSFFLYSRLTVDKSRWQEGNVFSCSVMHEALHAHYTQKSLSLSLGK", "light": "SYVLTQPPSVSVAPGQTARITCGGNNIGSKSVHWYQQKPGQAPVLVVYDDSDRPSGIPERFSGSNSGNTATLTISRVEAGDEADYYCQVWDSSSDHVVFGGGTKLTVLGQPKAAPSVTLFPPSSEELQANKATLVCLISDFYPGAVTVAWKADSSPVKAGVETTTPSKQSNNKYAASSYLSLTPEQWKSHRSYSCQVTHEGSTVEKTVAPTECS", "notes": "CD80 IgV mutant fused to the N-terminus of the sugemalimab heavy chain; also called CD80 IgV mutant E35N/A71E-sugemalimab fusion"}, "B2": {"name": "Abs-364 (other)", "heavy": "B1 heavy with N35Q, E71T", "light": "B1 light", "notes": "CD80 IgV mutant fused to the N-terminus of the sugemalimab heavy chain; also called CD80 IgV mutant E35Q/A71T-sugemalimab fusion"}, "B3": {"name": "Abs-358 (other)", "heavy": "B1 heavy with N35S, E71N", "light": "B1 light", "notes": "CD80 IgV mutant fused to the N-terminus of the sugemalimab heavy chain; also called CD80 IgV mutant E35S/A71N-sugemalimab fusion"}, "B4": {"name": "Abs-362 (other)", "heavy": "B1 heavy with N35Q, E71N", "light": "B1 light", "notes": "CD80 IgV mutant fused to the N-terminus of the sugemalimab heavy chain; also called CD80 IgV mutant E35Q/A71N-sugemalimab fusion"}, "B5": {"name": "Abs-264 (other)", "heavy": "B1 heavy with H18W, A26V, L85N", "light": "B1 light", "notes": "the paragraph that names the antibody is followed; also called CD80 IgV mutant H18W/A26V/E35N/A71E/L85N-sugemalimab fusion"}, "B6": {"name": "Abs-354 (other)", "heavy": "B1 heavy with E71N", "light": "B1 light", "notes": "CD80 IgV mutant fused to the N-terminus of the sugemalimab heavy chain; also called CD80 IgV mutant E35N/A71N-sugemalimab fusion"}, "B7": {"name": "Abs-99 (other)", "heavy": "B1 heavy with N35E, E71A", "light": "B1 light", "notes": "CD80 IgV fused to the N-terminus of the heavy chain of the anti-PD-L1 antibody sugemalimab; also called wild type Abs-99; wild-type CD80 IgV-sugemalimab fusion polypeptide complex"}, "B8": {"name": "Abs-260 (other)", "heavy": "B1 heavy with A26M, N35E, L85D", "light": "B1 light", "notes": "the paragraph that names the antibody is followed; also called CD80 IgV mutant A26M/A71E/L85D-sugemalimab fusion"}, "B9": {"name": "Abs-357 (other)", "heavy": "B1 heavy with N35S", "light": "B1 light", "notes": "CD80 IgV mutant fused to the N-terminus of the sugemalimab heavy chain; also called CD80 IgV mutant E35S/A71E-sugemalimab fusion"}, "B10": {"name": "Abs-365 (other)", "heavy": "B1 heavy with N35T", "light": "B1 light", "notes": "CD80 IgV mutant fused to the N-terminus of the sugemalimab heavy chain; also called CD80 IgV mutant E35T/A71E-sugemalimab fusion"}, "B11": {"name": "Abs-256 (other)", "heavy": "B1 heavy with H18W, A26M, N35E, L85D", "light": "B1 light", "notes": "the paragraph that names the antibody is followed; also called CD80 IgV mutant H18W/A26M/A71E/L85D-sugemalimab fusion"}, "B12": {"name": "Abs-257 (other)", "heavy": "B1 heavy with H18W, A26C, N35E, L85N", "light": "B1 light", "notes": "the paragraph that names the antibody is followed; also called CD80 IgV mutant H18W/A26C/A71E/L85N-sugemalimab fusion"}, "B13": {"name": "Abs-363 (other)", "heavy": "B1 heavy with N35Q, E71Q", "light": "B1 light", "notes": "CD80 IgV mutant fused to the N-terminus of the sugemalimab heavy chain; also called CD80 IgV mutant E35Q/A71Q-sugemalimab fusion"}, "B14": {"name": "Abs-355 (other)", "heavy": "B1 heavy with E71Q", "light": "B1 light", "notes": "CD80 IgV mutant fused to the N-terminus of the sugemalimab heavy chain; also called CD80 IgV mutant E35N/A71Q-sugemalimab fusion"}, "B15": {"name": "Abs-359 (other)", "heavy": "B1 heavy with N35S, E71Q", "light": "B1 light", "notes": "CD80 IgV mutant fused to the N-terminus of the sugemalimab heavy chain; also called CD80 IgV mutant E35S/A71Q-sugemalimab fusion"}, "B16": {"name": "Abs-360 (other)", "heavy": "B1 heavy with N35S, E71T", "light": "B1 light", "notes": "CD80 IgV mutant fused to the N-terminus of the sugemalimab heavy chain; also called CD80 IgV mutant E35S/A71T-sugemalimab fusion"}, "B17": {"name": "Abs-361 (other)", "heavy": "B1 heavy with N35Q", "light": "B1 light", "notes": "CD80 IgV mutant fused to the N-terminus of the sugemalimab heavy chain; also called CD80 IgV mutant E35Q/A71E-sugemalimab fusion"}, "B18": {"name": "Abs-356 (other)", "heavy": "B1 heavy with E71T", "light": "B1 light", "notes": "CD80 IgV mutant fused to the N-terminus of the sugemalimab heavy chain; also called CD80 IgV mutant E35N/A71T-sugemalimab fusion"}, "B19": {"name": "Abs-366 (other)", "heavy": "B1 heavy with N35T, E71N", "light": "B1 light", "notes": "CD80 IgV mutant fused to the N-terminus of the sugemalimab heavy chain; also called CD80 IgV mutant E35T/A71N-sugemalimab fusion"}, "B20": {"name": "Abs-273 (other)", "heavy": "B1 heavy with N35E, M47K, I69Y, V83L", "light": "B1 light", "notes": "CD80 IgV mutant fused to the N-terminus of the sugemalimab heavy chain; also called CD80 IgV mutant M47K/I69Y/A71E/V83L-sugemalimab fusion"}}, "note": "Substitutions are numbered along the chain they refer to. Names may count otherwise.", "data": [{"molecular_target": "PD-L1 on TCR activator PD-L1-CHO cells (UniProt Q9NZQ7 19-290, limits assumed)", "sequence (Q9NZQ7 19-290 limits assumed)": "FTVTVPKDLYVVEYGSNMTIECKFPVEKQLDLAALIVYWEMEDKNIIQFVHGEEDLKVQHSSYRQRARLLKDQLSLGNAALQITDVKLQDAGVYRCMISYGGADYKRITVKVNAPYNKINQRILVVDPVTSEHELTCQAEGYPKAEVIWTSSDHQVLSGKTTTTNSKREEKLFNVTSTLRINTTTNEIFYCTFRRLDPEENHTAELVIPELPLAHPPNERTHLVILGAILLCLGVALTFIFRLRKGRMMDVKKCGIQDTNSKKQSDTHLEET", "test": "cell-based or functional assay", "units": {"EC50(nM), Jurkat-NFAT-Luc/CHO-PDL1": "nM", "The highest induction relative to 10 nM sugemalimab": "%"}, "values": [{"binder": "B1", "EC50(nM), Jurkat-NFAT-Luc/CHO-PDL1": 0.48, "The highest induction relative to 10 nM sugemalimab": 1130}, {"binder": "B2", "EC50(nM), Jurkat-NFAT-Luc/CHO-PDL1": 1.06, "The highest induction relative to 10 nM sugemalimab": 150}, {"binder": "B3", "EC50(nM), Jurkat-NFAT-Luc/CHO-PDL1": 1.1, "The highest induction relative to 10 nM sugemalimab": 277}, {"binder": "B4", "EC50(nM), Jurkat-NFAT-Luc/CHO-PDL1": 0.58, "The highest induction relative to 10 nM sugemalimab": 337}, {"binder": "B5", "EC50(nM), Jurkat-NFAT-Luc/CHO-PDL1": 0.82, "The highest induction relative to 10 nM sugemalimab": 154}, {"binder": "B6", "EC50(nM), Jurkat-NFAT-Luc/CHO-PDL1": 0.25, "The highest induction relative to 10 nM sugemalimab": 1610}, {"binder": "B7", "EC50(nM), Jurkat-NFAT-Luc/CHO-PDL1": 0.28, "The highest induction relative to 10 nM sugemalimab": 215}, {"binder": "B8", "EC50(nM), Jurkat-NFAT-Luc/CHO-PDL1": 0.65, "The highest induction relative to 10 nM sugemalimab": 128}, {"binder": "B9", "EC50(nM), Jurkat-NFAT-Luc/CHO-PDL1": 1, "The highest induction relative to 10 nM sugemalimab": 238}, {"binder": "B10", "EC50(nM), Jurkat-NFAT-Luc/CHO-PDL1": 2.75, "The highest induction relative to 10 nM sugemalimab": 129}, {"binder": "B11", "EC50(nM), Jurkat-NFAT-Luc/CHO-PDL1": 0.87, "The highest induction relative to 10 nM sugemalimab": 133}, {"binder": "B12", "EC50(nM), Jurkat-NFAT-Luc/CHO-PDL1": 0.82, "The highest induction relative to 10 nM sugemalimab": 122}, {"binder": "B13", "EC50(nM), Jurkat-NFAT-Luc/CHO-PDL1": 1, "The highest induction relative to 10 nM sugemalimab": 121}, {"binder": "B14", "EC50(nM), Jurkat-NFAT-Luc/CHO-PDL1": 0.56, "The highest induction relative to 10 nM sugemalimab": 1110}, {"binder": "B15", "EC50(nM), Jurkat-NFAT-Luc/CHO-PDL1": 0.88, "The highest induction relative to 10 nM sugemalimab": 42}, {"binder": "B16", "EC50(nM), Jurkat-NFAT-Luc/CHO-PDL1": 0.82, "The highest induction relative to 10 nM sugemalimab": 64}, {"binder": "B17", "EC50(nM), Jurkat-NFAT-Luc/CHO-PDL1": 1.13, "The highest induction relative to 10 nM sugemalimab": 334}, {"binder": "B18", "EC50(nM), Jurkat-NFAT-Luc/CHO-PDL1": 0.9, "The highest induction relative to 10 nM sugemalimab": 441}]}, {"molecular_target": "T1, human CTLA4 protein (human, UniProt P16410 37-162, limits assumed)", "T1 construct": "bought protein coated on the ELISA plate; also called human CTLA4 antigen", "T1 sequence (looked up)": "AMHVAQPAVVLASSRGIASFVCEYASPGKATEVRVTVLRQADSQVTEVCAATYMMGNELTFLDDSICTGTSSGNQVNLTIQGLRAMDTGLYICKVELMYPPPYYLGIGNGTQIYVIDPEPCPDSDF", "test": "ELISA, plate-coated human CTLA4", "units": {"EC50": "nM", "binding strength @ 20nM": "%"}, "values": [{"binder": "B1", "EC50": 0.128, "binding strength @ 20nM": 2490}, {"binder": "B2", "EC50": 5.45, "binding strength @ 20nM": 3130}, {"binder": "B3", "binding result": "no binding"}, {"binder": "B4", "EC50": 8.39, "binding strength @ 20nM": 3180}, {"binder": "B5", "binding result": "no binding"}, {"binder": "B6", "EC50": 0.124, "binding strength @ 20nM": 3010}, {"binder": "B7", "EC50": 24.4, "binding strength @ 20nM": 1200}, {"binder": "B8", "binding result": "no binding"}, {"binder": "B9", "EC50": 17.8, "binding strength @ 20nM": 1830}, {"binder": "B10", "EC50": 24.7, "binding strength @ 20nM": 400}, {"binder": "B11", "binding result": "no binding"}, {"binder": "B12", "binding result": "no binding"}, {"binder": "B19", "binding result": "no binding"}, {"binder": "B13", "binding result": "no binding"}, {"binder": "B14", "EC50": 0.236, "binding strength @ 20nM": 3420}, {"binder": "B15", "EC50": 26.4, "binding strength @ 20nM": 766}, {"binder": "B16", "EC50": 26.7, "binding strength @ 20nM": 316}, {"binder": "B17", "binding result": "no binding"}, {"binder": "B20", "binding result": "no binding"}, {"binder": "B18", "EC50": 18.5, "binding strength @ 20nM": 1670}]}, {"molecular_target": "T2, human CD28 protein (human, UniProt P10747 19-152)", "T2 construct": "bought protein coated on the ELISA plate; also called human CD28 antigen", "T2 sequence (P10747 19-152 limits assumed)": "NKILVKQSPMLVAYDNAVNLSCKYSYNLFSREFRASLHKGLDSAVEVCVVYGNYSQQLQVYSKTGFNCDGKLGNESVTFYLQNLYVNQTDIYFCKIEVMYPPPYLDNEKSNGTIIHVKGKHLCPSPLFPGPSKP", "test": "ELISA, plate-coated human CD28", "parameters": "binding strength @ 100nM: reference not given here", "units": {"EC50": "nM", "binding strength @ 100nM": "%"}, "values": [{"binder": "B1", "EC50": 25, "binding strength @ 100nM": 1450}, {"binder": "B2", "EC50": 27.6, "binding strength @ 100nM": 785}, {"binder": "B3", "binding result": "no binding"}, {"binder": "B4", "EC50": 26.1, "binding strength @ 100nM": 1100}, {"binder": "B5", "binding result": "no binding"}, {"binder": "B6", "EC50": 22.1, "binding strength @ 100nM": 6300}, {"binder": "B7", "EC50": 27.9, "binding strength @ 100nM": 283}, {"binder": "B8", "binding result": "no binding"}, {"binder": "B9", "EC50": 26, "binding strength @ 100nM": 585}, {"binder": "B10", "EC50": 27.9, "binding strength @ 100nM": 857}, {"binder": "B11", "binding result": "no binding"}, {"binder": "B12", "binding result": "no binding"}, {"binder": "B19", "binding result": "no binding"}, {"binder": "B13", "binding result": "no binding"}, {"binder": "B14", "EC50": 26.8, "binding strength @ 100nM": 530}, {"binder": "B15", "EC50": 21.1, "binding strength @ 100nM": 450}, {"binder": "B16", "EC50": 25.9, "binding strength @ 100nM": 933}, {"binder": "B17", "binding result": "no binding"}, {"binder": "B20", "binding result": "no binding"}, {"binder": "B18", "EC50": 27.8, "binding strength @ 100nM": 733}]}]}
